# Measured values: PMC3776838, “Detection of Phospho-Sites Generated by Protein Kinase CK2 in CFTR: Mechanistic Aspects of Thr1471 Phosphorylation” (PLoS ONE, 2013)
# Target: Human CK2 α2β2-holoenzyme (human) (UniProt P68400)
# Sequence (P68400 whole entry, chain 1 of 2): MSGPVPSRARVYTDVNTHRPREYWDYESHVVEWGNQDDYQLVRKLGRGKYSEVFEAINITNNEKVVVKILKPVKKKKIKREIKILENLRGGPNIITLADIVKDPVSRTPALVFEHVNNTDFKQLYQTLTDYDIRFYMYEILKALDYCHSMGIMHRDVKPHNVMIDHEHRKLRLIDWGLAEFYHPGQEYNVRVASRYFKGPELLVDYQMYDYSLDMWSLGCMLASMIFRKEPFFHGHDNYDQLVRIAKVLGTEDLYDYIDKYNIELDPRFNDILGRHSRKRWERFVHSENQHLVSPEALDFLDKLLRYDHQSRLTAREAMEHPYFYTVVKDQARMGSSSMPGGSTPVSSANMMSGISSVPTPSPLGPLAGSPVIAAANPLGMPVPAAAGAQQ
# Sequence (P67870 whole entry, chain 2 of 2, further chain): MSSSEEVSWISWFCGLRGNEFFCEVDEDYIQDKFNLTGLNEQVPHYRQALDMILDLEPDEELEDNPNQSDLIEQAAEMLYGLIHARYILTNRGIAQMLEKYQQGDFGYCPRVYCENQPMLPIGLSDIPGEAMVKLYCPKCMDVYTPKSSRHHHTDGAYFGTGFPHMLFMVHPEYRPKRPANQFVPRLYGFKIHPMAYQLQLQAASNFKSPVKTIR
# Sequence of 42-mer peptide reproducing the C-terminal tail of human CFTR (residues 1439–1480) (P13569 1439-1480): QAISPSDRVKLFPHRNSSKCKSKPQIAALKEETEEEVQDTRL
substance,measurement,value
42-mer peptide reproducing the C-terminal tail of human CFTR (residues 1439–1480) (from UniProt P13569 1439-1480) (domain or fragment),"Km of phosphorylation of the 42-mer by CK2 holoenzyme (33P incorporation, Figure 3)",1.4 µM
